Measurements reported in paper PMC7408900, “Cancer-Associated Substitutions in RNA Recognition Motifs of PUF60 and U2AF65 Reveal Residues Required for Correct Folding and 3′ Splice-Site Selection”.

B1: UBE2F-cr3'ss-32 (ssRNA)
RNA: CUUUUUGUUUCCUUUUUUUUUUAAUUUAAAGG
B2: UBE2F-can3'ss-32 (ssRNA)
RNA: UUUUUUUGUUUUGUUUUGUGUUUUUUGAUAGA

Key:
[1] = target: T1, U2AF65 E162K (human, UniProt P26368 1-475, E162K); test: EMSA; Kd only in figure; Hill 1.84; binding not apparently reduced; EMSA: 40 mM Tris pH 8.0, 5 mM MgCl2, 0.25 ug/uL heparin, 0.01% Triton, 1 mM DTT, room temperature 20 min; 6% native PAGE in 0.5x TBE at 4 C; 15-17 nM biotin-RNA; details: protein: recombinant; tags: N-terminal GST (pGEX6P); label: 5' biotin; single strand
T1 sequence (P26368 whole entry E162K, one chain of several): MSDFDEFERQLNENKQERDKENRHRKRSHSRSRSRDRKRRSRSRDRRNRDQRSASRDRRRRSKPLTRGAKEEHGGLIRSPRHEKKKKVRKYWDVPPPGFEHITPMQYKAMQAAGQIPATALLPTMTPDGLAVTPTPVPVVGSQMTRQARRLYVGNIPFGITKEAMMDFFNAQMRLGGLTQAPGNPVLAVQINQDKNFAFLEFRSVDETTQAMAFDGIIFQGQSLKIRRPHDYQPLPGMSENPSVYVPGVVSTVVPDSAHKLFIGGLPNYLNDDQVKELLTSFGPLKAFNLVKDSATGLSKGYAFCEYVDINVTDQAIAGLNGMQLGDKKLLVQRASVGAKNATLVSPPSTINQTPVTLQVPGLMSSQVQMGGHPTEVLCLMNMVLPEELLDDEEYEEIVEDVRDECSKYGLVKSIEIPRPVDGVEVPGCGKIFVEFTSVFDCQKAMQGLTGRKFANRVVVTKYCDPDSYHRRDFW

[2] = target: T1, U2AF65 E162K; test: EMSA; Kd only in figure; Hill 2.23; binding not apparently reduced; EMSA: 40 mM Tris pH 8.0, 5 mM MgCl2, 0.25 ug/uL heparin, 0.01% Triton, 1 mM DTT, room temperature 20 min; 6% native PAGE in 0.5x TBE at 4 C; 15-17 nM biotin-RNA; details: protein: recombinant; tags: N-terminal GST (pGEX6P); label: 5' biotin; single strand
[3] = target: PUF60 H169Y (human, UniProt Q9UHX1 1-559, H169Y); test: EMSA; higher affinity than cr probe; approximate Kd only in figure; Hill 2.4; EMSA: 40 mM Tris pH 8.0, 5 mM MgCl2, 0.25 ug/uL heparin, 0.01% Triton, 1 mM DTT, room temperature 20 min; 6% native PAGE in 0.5x TBE at 4 C; 15-17 nM biotin-RNA; details: protein: recombinant; tags: 2xHis-lipoyl-TEV, removed by TEV; label: 5' biotin; single strand
Sequence of PUF60 H169Y (Q9UHX1 whole entry H169Y): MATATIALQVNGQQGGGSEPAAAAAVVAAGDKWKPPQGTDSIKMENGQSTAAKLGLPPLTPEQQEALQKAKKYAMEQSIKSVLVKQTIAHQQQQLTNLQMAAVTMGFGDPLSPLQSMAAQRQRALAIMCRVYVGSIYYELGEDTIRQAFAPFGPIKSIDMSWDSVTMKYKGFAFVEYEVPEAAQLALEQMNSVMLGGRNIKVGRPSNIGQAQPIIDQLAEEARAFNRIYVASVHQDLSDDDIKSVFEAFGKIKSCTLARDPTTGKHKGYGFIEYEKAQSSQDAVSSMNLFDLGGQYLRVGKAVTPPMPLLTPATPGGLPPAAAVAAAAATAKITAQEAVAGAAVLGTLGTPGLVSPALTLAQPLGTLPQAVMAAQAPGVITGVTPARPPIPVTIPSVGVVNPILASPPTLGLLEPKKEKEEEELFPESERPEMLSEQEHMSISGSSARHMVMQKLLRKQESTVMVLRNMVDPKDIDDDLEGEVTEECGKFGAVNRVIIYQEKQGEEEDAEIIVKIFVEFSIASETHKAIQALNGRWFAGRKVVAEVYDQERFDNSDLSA

Row | Binder | binding result [1] | binding result [2] | binding result [3]
1 | B1 | binds | – | –
2 | B2 | – | binds | binds
